Data as given in patent publication US20220380459A1 (DRAGONFLY THERAPEUTICS, published 2022).
Read-outs that look alike come from different tables or passages of the source.

Key:
Experiment in all cases: SPR, Fab captured, 37C
[1] = biological target: T1, human CD33 extracellular domain (human, UniProt P20138 18-259)
T1 construct: soluble monomeric ECD; also called human CD33 ECD; hCD33

[2] = biological target: T1, human CD33 extracellular domain; remark: listed apart in the source
Protocol: (§1) Kinetics and affinity of a series of Fab fragments of anti-CD33 antibodies with different CD33 variants (human CD33 ECD, cyno CD33 ECD, V-domain of human CD33, C-domain or human CD33 and selected CD33 SNPs) were assessed by surface plasmon resonance using Biacore 8K instrument (GE Healthcare). Anti-Fab antibody was immobilized on a CMS chip using standard amine coupling chemistry. CD33 FABs were captured on the anti-Fab chip at a density of ˜100 RU. Solutions containing different concentrations of soluble monomeric CD33 or its domains were injected over the captured FABs and control surfaces at 30 μl/min at 37° C. Surfaces were regenerated between cycles by quick injection of 10 mM glycine, pH 1.8. To obtain kinetic rate constants double-referenced data were fit to a 1:1 interaction model using Biacore 8K Evaluation software (GE Healthcare). The equilibrium binding constant KD was determined by the ratio of binding rate constants kd/kₐ.
(§2) Affinity of 29 Fab fragments binding to human and cyno CD33 ECD were assayed by Biacore analysis.

[3] = biological target: T2, cyno CD33 extracellular domain (Cynomolgus/Rhesus (cyno))
T2 construct: soluble monomeric ECD; also called cyno CD33 ECD
Protocol: as §1, §2

[4] = biological target: T1, human CD33 extracellular domain; remark: listed apart in the source
Protocol: as §1

V domain of human CD33 [5] = biological target: T3, V domain of human CD33 (human, UniProt P20138 18-139, limits assumed)
T3 construct: recombinant, fully glycosylated V domain; also called Human CD33 V domain
Protocol: as §1

[6] = biological target: T4, deglycosylated V domain of human CD33 (human, UniProt P20138 18-139, limits assumed, N-glycans removed by PNGase)
T4 construct: V domain deglycosylated by PNGase before testing; also called deglycosylated V CD33
Protocol: as §1
(§3) The ability of anti-CD33 antibodies to recognize glycosylated CD33 was assayed. […] De-glycosylation status was confirmed by a shift on SDS-PAGE and MS.

V domain of human CD33 [7] = biological target: T3, V domain of human CD33; remark: listed apart in the source
Protocol: as §1, §3

C domain of human CD33 = biological target: T5, C domain of human CD33 (human, UniProt P20138 140-259, limits assumed)
T5 construct: recombinant C domain
Protocol: as §1
The binding interface between the Fab fragment of each CD33 antibody to CD33 was mapped.

[8] = biological target: T1, human CD33 extracellular domain; remark: listed apart in the source
Protocol: as §1, §2

Binder	Kd [1] [nM]	koff [1] [s⁻¹]	kon [1] [M⁻¹ s⁻¹]	Kd [2] [nM]	koff [2] [s⁻¹]	kon [2] [M⁻¹ s⁻¹]	Kd [4] [nM]	koff [4] [s⁻¹]	kon [4] [M⁻¹ s⁻¹]	Kd (V domain of human CD33 [5]) [nM]	koff (V domain of human CD33 [5]) [s⁻¹]	kon (V domain of human CD33 [5]) [M⁻¹ s⁻¹]	Kd [6] [nM]	koff [6] [s⁻¹]	kon [6] [M⁻¹ s⁻¹]	Kd (V domain of human CD33 [7]) [nM]	koff (V domain of human CD33 [7]) [s⁻¹]	kon (V domain of human CD33 [7]) [M⁻¹ s⁻¹]	binding result (C domain of human CD33)	Kd [8] [nM]	further results
ADI-10157 Fab (Fab, V domains shown, Fab fragment; also called Ab13) VH: QVQLQESGPGLVKPSETLSLTCTVSGGSISSYYWSWIRQPPGKGLEWIGSIYYSGSTNYNPSLKSRVTISVDTSKNQFSLKLSSVTAADTAVYYCARVGGVYSTIETYGMDVWGQGTTVTVSS VL: EIVMTQSPATLSVSPGERATLSCRASQSVSSNLAWYQQKPGQAPRLLIYGASTRATGIPARFSGSGSGTEFTLTISSLQSEDFAVYYCQQYTVYPPTFGGGTKVEIK	2.69	0.0076	2.82e+06	2.69	0.0076	2.82e+06	2.69	0.0076	2.82e+06	134	0.0151	112000	63.8	0.0261	411000	134	0.0151	112000	no binding	2.69	koff [8]: 0.0076 s⁻¹; binding result [3]: no binding (tested: 100 nM)
ADI-11826 Fab (Fab, V domains shown, Fab fragment; also called Ab26) VH: EVQLVESGGGLVQPGGSLRLSCAASGFTFPGYWMSWVRQAPGKGLEWVANINQDGSEVYYVDSVKGRFTISRDNAKNSLYLQMNSLRAEDTAVYYCAREANYYGNVGDDYWGQGTLVTVSS VL: DIQMTQSPSSLSASVGDRVTITCRASQSIYNYLNWYQQKPGKAPKLLIYAASSTQSGVPSRFSGSGSGTDFTLTISSLQPEDFATYYCQQAFHVPITFGGGTKVEIK	2.63	0.00463	1.76e+06	2.63	0.00463	1.76e+06	2.63	0.00463	1.76e+06	4.38	0.0225	5.12e+06	3.69	0.0198	5.37e+06	4.38	0.0225	5.12e+06	no binding	2.63	koff [8]: 0.00463 s⁻¹; binding result [3]: no binding (tested: 100 nM)
ADI-10160 Fab (Fab, V domains shown, Fab fragment; also called Ab15) VH: EVQLVESGGGLVQPGGSLRLSCAASGFTFSSYWMSWVRQAPGKGLEWVANINQDGSEKYYVDSVKGRFTISRDNAKNSLYLQMNSLRAEDTAVYYCAREANYYGNVGDDYWGQGTLVTVSS VL: not shown	42.2	0.0269	637000	42.2	0.0269	637000	42.2	0.0269	637000	206	0.327	1.59e+06	133	0.225	1.7e+06	206	0.327	1.59e+06	no binding	42.2	koff [8]: 0.0269 s⁻¹; binding result [3]: no binding (tested: 100 nM)
ADI-10159 Fab (Fab, V domains shown, Fab fragment; also called Ab1; G59) VH: EVQLVESGGGLVQPGGSLRLSCAASGFTFSSYGMSWVRQAPGKGLEWVANIKQDGSEKYYVDSVKGRFTISRDNAKNSLYLQMNSLRAEDTAVYYCAREGGPYYDSSGYFVYYGMDVWGQGTTVTVSS VL: DIQMTQSPSTLSASVGDRVTITCRASQSISSWLAWYQQKPGKAPKLLIYDASSLESGVPSRFSGSGSGTEFTLTISSLQPDDFATYYCQQYESFPTFGGGTKVEIK	4.53	0.00195	429000	4.53	0.00195	429000	4.53	0.00195	429000	5.56	0.005	905000	12.3	0.012	978000	5.56	0.005	905000	no binding	–	Kd [3]: 74.9 nM; koff [3]: 0.0436 s⁻¹; kon [3]: 528000 M⁻¹ s⁻¹

Continued, in another order:

Kd [1] [nM]	koff [1] [s⁻¹]	kon [1] [M⁻¹ s⁻¹]	Kd [2] [nM]	koff [2] [s⁻¹]	kon [2] [M⁻¹ s⁻¹]	Kd [4] [nM]	koff [4] [s⁻¹]	kon [4] [M⁻¹ s⁻¹]	Kd (V domain of human CD33 [5]) [nM]	koff (V domain of human CD33 [5]) [s⁻¹]	kon (V domain of human CD33 [5]) [M⁻¹ s⁻¹]	Kd [6] [nM]	koff [6] [s⁻¹]	kon [6] [M⁻¹ s⁻¹]	Kd (V domain of human CD33 [7]) [nM]	koff (V domain of human CD33 [7]) [s⁻¹]	kon (V domain of human CD33 [7]) [M⁻¹ s⁻¹]	binding result (C domain of human CD33)	Kd [8] [nM]	Binder	further results
0.53	0.00143	2.6e+06	0.53	0.00143	2.6e+06	0.53	0.00143	2.6e+06	1.14	0.00868	7.6e+06	0.98	0.00779	7.94e+06	1.14	0.00868	7.6e+06	no binding	–	ADI-11835 Fab (Fab, V domains shown, Fab fragment; also called Ab10; I35) VH: QLQLQESGPGLVKPSETLSLTCTVSGGSISSTDYYWGWIRQPPGKGLEWIGSIGYSGTYYNPSLKSRVTISVDTSKNQFSLKLSSVTAADTAVYYCARETAHDVHGMDVWGQGTTVTVSS VL: EIVLTQSPATLSLSPGERATLSCRASHSVYSYLAWYQQKPGQAPRLLIYDASNRATGIPARFSGSGSGTDFTLTISSLEPEDFAVYYCQQYDNLPTFGGGTKVEIK	Kd [3]: 6.86 nM; koff [3]: 0.0189 s⁻¹; kon [3]: 2.76e+06 M⁻¹ s⁻¹
3.14	0.00154	490000	3.14	0.00154	490000	3.14	0.00154	490000	3.2	0.00435	1.34e+06	2.65	0.00417	1.57e+06	3.2	0.00435	1.34e+06	no binding	3.14	ADI-11802 Fab (Fab, V domains shown, Fab fragment; also called Ab23) VH: QVQLVQSGAEVKKPGASVKVSCKASGYTFSGYYMHWVRQAPGQGLEWMGMINPYGGSTRYAQKFQGRVTMTRDTSTSTVYMELSSLRSEDTAVYYCAREAADGFVGERYFDLWGRGTLVTVSS VL: not shown	koff [8]: 0.00154 s⁻¹; binding result [3]: no binding (tested: 100 nM)
53.5	–	–	53.5	–	–	53.5	–	–	–	–	–	152	–	–	–	–	–	no binding	53.5	ADI-10163 Fab (Fab, V domains shown, Fab fragment; also called Ab17) VH: QVQLQESGPGLVKPSQTLSLTCTVSGGSISSGGYYWSWIRQHPGKGLEWIGSIYYSGSTYYNPSLKSRVTISVDTSKNQFSLKLSSVTAADTAVYYCARDRLDYSYNYGMDVWGQGTTVTVSS VL: DIQMTQSPSSLSASVGDRVTITCRASQSISSYLNWYQQKPGKAPKLLIYGASSLQSGVPSRFSGSGSGTDFTLTISSLQPEDFATYYCQQVYSAPFTFGGGTKVEIK	binding result [3]: no binding (tested: 100 nM)
58.8	–	–	58.8	–	–	58.8	–	–	–	–	–	200	–	–	–	–	–	no binding	58.8	ADI-10173 Fab (Fab, V domains shown, Fab fragment; also called Ab22) VH: QVQLVQSGAEVKKPGASVKVSCKASGYTFTSYYMHWVRQAPGQGLEWMGIINPSGGSTTYAQKFQGRVTMTRDTSTSTVYMELSSLRSEDTAVYYCAREAADGFVGERYFDLWGRGTLVTVSS VL: not shown	binding result [3]: no binding (tested: 100 nM)
1.23	0.000486	396000	1.23	0.000486	396000	1.23	0.000486	396000	–	–	–	–	–	–	–	–	–	no binding	1.23	ADI-11812 Fab (Fab, V domains shown, Fab fragment; also called Ab24) VH: QVQLVQSGAEVKKPGASVKVSCKASGYTFEIYYMHWVRQAPGQGLEWMGIINPSSGSTVYAQKFQGRVTMTRDTSTSTVYMELSSLRSEDTAVYYCARGAGYDDEDMDVWGKGTTVTVSS VL: DIQMTQSPSSVSASVGDRVTITCRASQGIDSWLAWYQQKPGKAPKLLIYAASSLQSGVPSRFSGSGSGTDFTLTISSLQPEDFATYYCQQAHSYPLTFGGGTKVEIK	koff [8]: 0.000486 s⁻¹; binding result [3]: no binding (tested: 100 nM); binding result (V domain of human CD33 [5]): no binding; binding result [6]: no binding
11.4	0.00636	558000	11.4	0.00636	558000	11.4	0.00636	558000	54.8	0.0857	1.56e+06	38.2	0.0701	1.88e+06	54.8	0.0857	1.56e+06	no binding	–	ADI-10177 Fab (Fab, V domains shown, Fab fragment; also called Ab2) VH: EVQLVESGGGLVQPGGSLRLSCAASGFTFSSYWMSWVRQAPGKGLEWVANIKQDGSEKYYVDSVKGRFTISRDNAKNSLYLQMNSLRAEDTAVYYCARPLNAGELDVWGQGTMVTVSS VL: DIQMTQSPSTLSASVGDRVTITCRASQSISSWLAWYQQKPGKAPKLLIYEASSLESGVPSRFSGSGSGTEFTLTISSLQPDDFATYYCQQLESYPLTFGGGTKVEIK	Kd [3]: 21.4 nM; koff [3]: 0.00754 s⁻¹; kon [3]: 353000 M⁻¹ s⁻¹
